Source: patent US8357518B2, “Thermostable enzymes for the hydrolysis of mannan-containing polysaccharides” (The Board of Trustees of the University of Illinois, priority 2010, dated 2013)

B1: Caldanaerobius polysaccharolyticus endo-β-mannanase Man5B, wild type, SEQ ID NO: 31 (Caldanaerobius polysaccharolyticus) (protein)
chain: MKKYGFNFQWMYVWEEGREPEPPDKKALDFLAETGFNFVRIPVDYRFWTRNFDYFNPDKKVFEYIDLYLRECSARNIHMCLNLHRAPGYCINRNDIERDNLWLDKRAQDGFVYQWELFAKRYKGVSSKFLSFDLVNEPPNIGQYGLTRENHASLIIRTVEAIRKIDPDREIVIDGLGGGNIAMPELAHLGVVHSGRGYQPMALTHYQASWWDGHKGLPEPYYPDLLWQGKVWNKDTLREYYKPWRDLQQKGVNVHIGEFGCFNKTSNDVAIRWFEDVLSLYKEFEWGYSLWNFKGPFGIVEHGRPGAKYEYYRGFKVDRELLDLLVENRV
B2: Caldanaerobius polysaccharolyticus endo-β-mannanase Man5A truncation mutant Man5A-TM1, SEQ ID NO: 28 (Caldanaerobius polysaccharolyticus) (protein)
chain: AGTSGDGRFHVVGNKIVDPDGKDFIIKGVNIQGYRSWEKRSVLQDVHLIADVWKFNTVRLNCFIGQNNWGEGTGANNDIDAIIKAFTAKKVVVEIDLHDTTGYPPLSNPPPAPGQPSLDQAIAWFKELAAKYKDNPYVWFNTMNEPGSSTAPLDPQWKVANEEIIKAIRSTGADNIIVVDGWSYANEGIEQNTPTVDEKRSAVLTYGQDLLNADSAKNTIFAFHNYNEGDIQKKVEDYIDRANAKGLYVFMEEYGKDYSDAAKEGVKSGLQAVMNKGAGRIYWNWDGYDLYDLTSGTGRGSGWEINKTDGSKPTNLSWVGDKIWDDNHGITPTFDDQNPKVDLALERLIANNNGFKAGDKVQFTTFLRNSGDLPIGKDSKVVVKFYVDGVQLGDPVEISGGIAVGQRIPVTSPELTVSKTDFTVKAVIDSSSTYADGAEDAVIENNWIEAAFNSTAPSSGYELVVTGIKITPDTVKEGDYVQAQVTVANQGPEATPVTNIIGWFYVNGYYYTLDDAAKSCAEQDNVTLKPGESITLSTKVKYRAAAPFNFSFVLENLYADDQNQSNNSITVNVPVKMGEGGVNMVSNPGFEDGLDSWQDWQQDMSAVPEAAHNGALGLKIGGGKAAGGGQDIPLKPNTTYILGAWAKFDSKPAGTFDVVVQYHLKDANNTYVQHILNFNETDWTYKQLLFTTPDVFGSTPQLALWKGDTSKANLYVDDVYLVEVSNLIVNGTAENGMDGWPDWGYPVSAVPEAAYGGTKGFKLSGGKQAGMGQKVALKPNTTYILGAWGKFTAKPGTYCDVIVQYHLKDANNTYVQNILRFTETDWTYKQVVFTTPDAFGSDPEFVLWKDDASNADFYADNITLVEV

Experiments:
[1] = substrate: OC[C@H]1O[C@@H](O[C@H]2[C@H](O)[C@@H](O)[C@H](O[C@H]3[C@H](O)[C@@H](O)C(O)O[C@@H]3CO)O[C@@H]2CO)[C@H](O)[C@@H](O)[C@@H]1O; assay: purified protein, by the assay type; settings: other: Man5B 3 nM, oligosaccharide 30 μM, citrate buffer 50 mM, pH 5.5, 5 min, triplicate
[2] = substrate: OC[C@H]1O[C@@H](O[C@H]2[C@H](O)[C@@H](O)[C@H](O[C@H]3[C@H](O)[C@@H](O)[C@H](O[C@H]4[C@H](O)[C@@H](O)C(O)O[C@@H]4CO)O[C@@H]3CO)O[C@@H]2CO)[C@H](O)[C@@H](O)[C@@H]1O; assay: purified protein, by the assay type; settings: other: Man5B 3 nM, oligosaccharide 30 μM, citrate buffer 50 mM, pH 5.5, 5 min, triplicate
[3] = substrate: OC[C@H]1O[C@@H](O[C@H]2[C@H](O)[C@@H](O)[C@H](O[C@H]3[C@H](O)[C@@H](O)[C@H](O[C@H]4[C@H](O)[C@@H](O)[C@H](O[C@H]5[C@H](O)[C@@H](O)[C@H](O[C@H]6[C@H](O)[C@@H](O)C(O)O[C@@H]6CO)O[C@@H]5CO)O[C@@H]4CO)O[C@@H]3CO)O[C@@H]2CO)[C@H](O)[C@@H](O)[C@@H]1O; assay: purified protein, by the assay type; settings: other: Man5B 3 nM, oligosaccharide 30 μM, citrate buffer 50 mM, pH 5.5, 5 min, triplicate
[4] = substrate: OC[C@H]1O[C@@H](O[C@H]2[C@H](O)[C@H](O)[C@H](O[C@H]3[C@H](O)[C@H](O)C(O)O[C@@H]3CO)O[C@@H]2CO)[C@@H](O)[C@@H](O)[C@@H]1O; assay: purified protein, by the assay type; settings: other: Man5B 3 nM, oligosaccharide 30 μM, citrate buffer 50 mM, pH 5.5, 5 min, triplicate
[5] = substrate: OC[C@H]1O[C@@H](O[C@H]2[C@H](O)[C@H](O)[C@H](O[C@H]3[C@H](O)[C@H](O)[C@H](O[C@H]4[C@H](O)[C@H](O)C(O)O[C@@H]4CO)O[C@@H]3CO)O[C@@H]2CO)[C@@H](O)[C@@H](O)[C@@H]1O; assay: purified protein, by the assay type; settings: other: Man5B 3 nM, oligosaccharide 30 μM, citrate buffer 50 mM, pH 5.5, 5 min, triplicate
[6] = substrate: OC[C@H]1O[C@@H](O[C@H]2[C@H](O)[C@H](O)[C@H](O[C@H]3[C@H](O)[C@H](O)[C@H](O[C@H]4[C@H](O)[C@H](O)[C@H](O[C@H]5[C@H](O)[C@H](O)[C@H](O[C@H]6[C@H](O)[C@H](O)C(O)O[C@@H]6CO)O[C@@H]5CO)O[C@@H]4CO)O[C@@H]3CO)O[C@@H]2CO)[C@@H](O)[C@@H](O)[C@@H]1O; assay: purified protein, by the assay type; settings: other: Man5B 3 nM, oligosaccharide 30 μM, citrate buffer 50 mM, pH 5.5, 5 min, triplicate
[7] = substrate: O=[N+]([O-])c1ccc(O[C@@H]2O[C@H](CO)[C@@H](O)[C@H](O)[C@@H]2O)cc1; assay: Catalytic efficiency with pNP-linked sugars (Man5A-TM1); type: biochemical, Caldanaerobius polysaccharolyticus; settings: other: Man5A-TM1, pNP substrates, citrate buffer 50 mM, pH 5.5, 65° C., triplicate
Procedure: The plasmid constructs were then introduced into E. coli BL-21 CodonPlus (DE3) RIL competent cells by heat shock, and grown overnight in lysogeny broth (LB) agar medium supplemented with ampicillin (100 μg/mL) and chloramphenicol (50 μg/mL) at 37° C. After 12 h, single colonies were selected and used to inoculate fresh LB (10 mL) supplemented with the antibiotics above at the same concentrations, followed by culturing with aeration for 8 h at 37° C. The pre-cultures were then inoculated into fresh LB (1 L) supplemented with ampicillin and chloramphenicol and the cultures were incubated at 37° C. with vigorous aeration (225 rpm/min). […] Aliquots of eluted fractions were analyzed by sodium dodecyl sulfate-polyacrylamide gel electrophoresis (SDS-PAGE) and protein bands were visualized by staining with Coomassie brilliant blue G-250. […] The UV absorbances of the protein solutions were recorded at 280 nm using a Nanoprop 1000 from Thermo Scientific (Waltham, Mass.) and the protein concentrations were calculated using the following extinction coefficients: Man5A-TM1, ε280 nm=189 mM^−1 cm^−1; Man5A-TM2, ε280 nm=113 mM^−1 cm^−1; Man5B, ε280 nm=103 mM^−1 cm^−1.
Hydrolysis of para-nitrophenyl (pNP) linked sugars. […] The extinction coefficient of pNP at pH 5.5 was determined as 1636 M^−1 cm^−1.

| Protein | kcat/Km [1] [M⁻¹ s⁻¹] | kcat/Km [2] [M⁻¹ s⁻¹] | kcat/Km [3] [M⁻¹ s⁻¹] | kcat/Km [4] [M⁻¹ s⁻¹] | kcat/Km [5] [M⁻¹ s⁻¹] | kcat/Km [6] | kcat/Km [7] |
| --- | --- | --- | --- | --- | --- | --- | --- |
| B1 | 1000 ± 70 | 1400 ± 200 | 43000 ± 3000 | 270 ± 50 | 63000 ± 6000 | (2.7 ± 0.7) × 10^2 mM^−1 s^−1 |  |
| B2 |  |  |  |  |  |  | (1.4 ± 0.3) × 10^−2 mM^−1 s^−1 |
